Experimental data from article PMC10372031, “Architecture and autoinhibitory mechanism of the plasma membrane Na^+/H^+ antiporter SOS1 in Arabidopsis” (Nature Communications, 2023).

Target: the molecule itself
Test: cryo-EM structure; single-particle cryo-EM of purified SOS1 in 20 mM HEPES pH 7.5, 150 mM NaCl, 5 mM β-ME, 0.007% GDN; two conformations (SOS1 at 2.8 Å, SOS1^expand at 3.4 Å)

B1: Arabidopsis thaliana Salt-overly-sensitive 1 (SOS1), full-length wild type (natural protein, UniProt Q9LKW9 1-1146, looked up)
chain: MTTVIDATMAYRFLEEATDSSSSSSSSKLESSPVDAVLFVGMSLVLGIASRHLLRGTRVPYTVALLVIGIALGSLEYGAKHNLGKIGHGIRIWNEIDPELLLAVFLPALLFESSFSMEVHQIKRCLGQMVLLAVPGVLISTACLGSLVKVTFPYEWDWKTSLLLGGLLSATDPVAVVALLKELGASKKLSTIIEGESLMNDGTAIVVFQLFLKMAMGQNSDWSSIIKFLLKVALGAVGIGLAFGIASVIWLKFIFNDTVIEITLTIAVSYFAYYTAQEWAGASGVLTVMTLGMFYAAFARTAFKGDSQKSLHHFWEMVAYIANTLIFILSGVVIAEGILDSDKIAYQGNSWRFLFLLYVYIQLSRVVVVGVLYPLLCRFGYGLDWKESIILVWSGLRGAVALALSLSVKQSSGNSHISKETGTLFLFFTGGIVFLTLIVNGSTTQFVLRLLRMDILPAPKKRILEYTKYEMLNKALRAFQDLGDDEELGPADWPTVESYISSLKGSEGELVHHPHNGSKIGSLDPKSLKDIRMRFLNGVQATYWEMLDEGRISEVTANILMQSVDEALDQVSTTLCDWRGLKPHVNFPNYYNFLHSKVVPRKLVTYFAVERLESACYISAAFLRAHTIARQQLYDFLGESNIGSIVINESEKEGEEAKKFLEKVRSSFPQVLRVVKTKQVTYSVLNHLLGYIENLEKVGLLEEKEIAHLHDAVQTGLKKLLRNPPIVKLPKLSDMITSHPLSVALPPAFCEPLKHSKKEPMKLRGVTLYKEGSKPTGVWLIFDGIVKWKSKILSNNHSLHPTFSHGSTLGLYEVLTGKPYLCDLITDSMVLCFFIDSEKILSLQSDSTIDDFLWQESALVLLKLLRPQIFESVAMQELRALVSTESSKLTTYVTGESIEIDCNSIGLLLEGFVKPVGIKEELISSPAALSPSNGNQSFHNSSEASGIMRVSFSQQATQYIVETRARAIIFNIGAFGADRTLHRRPSSLTPPRSSSSDQLQRSFRKEHRGLMSWPENIYAKQQQEINKTTLSLSERAMQLSIFGSMVNVYRRSVSFGGIYNNKLQDNLLYKKLPLNPAQGLVSAKSESSIVTKKQLETRKHACQLPLKGESSTRQNTMVESSDEEDEDEGIVVRIDSPSKIVFRNDL
notes: Arabidopsis thaliana SOS1 Na+/H+ antiporter, ecotype Columbia (Col-0) cDNA, 1146 residues; model holds residues 32-972, 1007-1017 and 1030-1048; Eluate was incubated with PreScission protease for 3 h before SEC; residues of the protease site may remain at the C-terminus; also called AtSOS1; SOS1-ClassII; source: HEK293F cells (Bac-to-Bac baculovirus, pEG-BacMam), purified (Streptactin beads, …)
stoichiometry N: 2
